How the values were obtained:
Experiment in all cases: affinity HPLC, POROS AAVX resin, linear pH gradient 4.5 to 2.2, AAV2 peak top
[1] = target: AAV2 (wild type), serotype 2 AAV with capsid region VP1 of SEQ ID NO: 99 (adeno-associated virus serotype 2 (AAV2)) (UniProt P03135)
[2] = target: AAV2 D528A (adeno-associated virus serotype 2 (AAV2)) (UniProt P03135)
[3] = target: AAV2 D529E (adeno-associated virus serotype 2 (AAV2)) (UniProt P03135)
[4] = target: AAV2 G383A (adeno-associated virus serotype 2 (AAV2)) (UniProt P03135)
[5] = target: AAV2 H271A (adeno-associated virus serotype 2 (AAV2)) (UniProt P03135)
[6] = target: AAV2 H271F (adeno-associated virus serotype 2 (AAV2)) (UniProt P03135)
[7] = target: AAV2 H271Q (adeno-associated virus serotype 2 (AAV2)) (UniProt P03135)
[8] = target: AAV2 H271T (adeno-associated virus serotype 2 (AAV2)) (UniProt P03135)
[9] = target: AAV2 Q263A (adeno-associated virus serotype 2 (AAV2)) (UniProt P03135)
[10] = target: AAV2 S267T (adeno-associated virus serotype 2 (AAV2)) (UniProt P03135)

With “POROS Capture Select AAVX Affinity Resin (manufactured by Thermo Fisher Scientific)” the AAVX column elution time [1] was 48.2 min, the AAVX column elution time [2] was 47.8 min and the AAVX column elution time [3] was 48 min. For the same substance, the AAVX column elution time [4] was 48.1 min, the AAVX column elution time [5] was 48.2 min and the AAVX column elution time [6] was 48.1 min. It also gave an AAVX column elution time [7] of 48.1 min, an AAVX column elution time [8] of 47.9 min and an AAVX column elution time [9] of 48 min. For the same substance, the AAVX column elution time [10] was 48 min.

— patent US20250236657A1 (TOSOH, published 2025)
